From US20220119540A1 (NANJING GENSCRIPT BIOTECH, published 2022)
Values belong to the molecule of their own block, whether it stands above or below them.

Experiments:
[1] = target: OX40 on a functional cell line overexpressing OX40 (UniProt P43489); assay: cell-based or functional assay
[2] = target: T1, Recombinant human OX40-His protein (human, UniProt P43489 29-214, limits assumed); assay: SPR (Biacore 8K), OX40-HIS coupled to chip, antibody as analyte, 1:1 binding model
T1 construct: Recombinant antigen protein; also called recombinant human OX-40 protein; human OX-40 protein; not shown: His tag
T1 sequence (looked up): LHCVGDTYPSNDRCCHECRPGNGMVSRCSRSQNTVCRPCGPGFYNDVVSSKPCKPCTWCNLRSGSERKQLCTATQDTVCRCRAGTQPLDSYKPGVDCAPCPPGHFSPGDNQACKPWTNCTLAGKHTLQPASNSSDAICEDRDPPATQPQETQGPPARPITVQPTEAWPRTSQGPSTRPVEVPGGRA
Experimental: The chip surface was equilibrated with HBS-EP buffer at a flow rate of 10 μl/min for 5 min, and then a 1:1 mixture of “NHS+EDC” was injected at a flow rate of 10 μl/min for 100 sec to activate the chip. The antigen protein (OX40-HIS) diluted in 10 mM sodium acetate buffer was injected for about 180 sec at a flow rate of 10 μl/min for coupling, and finally ethanolamine was injected for 200 sec at a flow rate of 10 μl/min to block the surface.
Three pre-cycles were performed with the HBS-EP buffer as a sample to balance the chip to stabilize the baseline. A low concentration of antibody was injected at a flow rate of 30 μl/min for 200 sec, to allow the antigen to bind to the antibody, and then the buffer was injected at a flow rate of 30 μl/min for 400 sec for dissociation. 10 mM Gly-HCl pH2.0 was injected three times each for 30 sec at a flow rate of 30 μl/min for regeneration, to complete one cycle.
The antibody concentration was changed to carry out the cycle for measurement at a next gradient concentration until all gradient concentrations (2.5 nM, 5 nM, 10 nM, 20 nM, 40 nM, and […]) and the replicate (such as 20 nM) were tested. The experimental data was double subtracted (minus the background values of the control channel and zero concentration), and fitted to the “1:1 binding” model in the Biacore 8K evaluation software. Biacore 8K was used to determine the affinity of the antibody to the OX40-HIS recombinant protein.

[3] = target: T1, Recombinant human OX40-His protein; assay: ELISA, plate coated with recombinant human OX-40 protein, antibody titrated
Experimental: Recombinant human OX-40 protein and recombinant monkey OX-40 protein were respectively used to detect the cross-recognition ability of humanized monoclonal antibodies for human/monkey OX-40 protein.
The ELISA plate (Nunc) was coated with 100 μl/well of […] recombinant OX40-His protein in PBS at 4° C. overnight. The plate was washed with PBS-T (0.05% Tween) and blocked with 200 μl/well of PBST containing 1% BSA at 37° C. for 0.5 hr. Then the blocking buffer was discarded, 100 μl of 1000 ng/ml purified antibody was added to the first well, 3-fold serial dilutions were made, and a total of 11 test concentration gradients were given. Then the system was incubated for 1 hr at room temperature. The plate was washed three times with PBST and incubated with 100 μl/well of horseradish peroxidase-conjugated goat anti-human Fab fragment-IgG (Fab-specific) (GenScript) at 37° C. for 0.5 hr. The plate was washed 5 times with PBST, and then a TMB developing solution (GenScript) was added and incubated at room temperature for 15 min in the dark. The reaction was terminated by adding 50 μl of 1 M HCl stop solution (Sigma). The plate was read at 450 nm on a microplate reader.

[4] = target: T2, Recombinant monkey OX-40 protein (monkey); assay: ELISA, plate coated with recombinant monkey OX-40 protein, antibody titrated
T2 chain: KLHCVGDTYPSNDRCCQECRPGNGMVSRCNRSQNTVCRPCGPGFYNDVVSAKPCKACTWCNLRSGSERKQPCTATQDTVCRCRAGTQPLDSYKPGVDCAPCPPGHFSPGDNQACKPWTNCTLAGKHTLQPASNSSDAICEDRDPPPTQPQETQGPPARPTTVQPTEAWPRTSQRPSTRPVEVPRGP

[5] = target: T3, OX40 on a functional cell line overexpressing OX40 (UniProt P43489 29-277, limits assumed); assay: cell-based or functional assay
T3 sequence (looked up): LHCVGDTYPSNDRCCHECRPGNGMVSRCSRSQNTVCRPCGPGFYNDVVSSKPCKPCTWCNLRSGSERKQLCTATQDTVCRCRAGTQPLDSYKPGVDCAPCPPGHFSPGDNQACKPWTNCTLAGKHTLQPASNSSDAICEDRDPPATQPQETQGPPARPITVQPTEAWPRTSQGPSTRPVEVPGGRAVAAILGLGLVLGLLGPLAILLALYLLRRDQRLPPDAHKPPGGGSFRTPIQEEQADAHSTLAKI

[6] = target: T1, Recombinant human OX40-His protein; assay: kinetic ranking (RU, 1:1 binding model), antibody product as ligand, OX40-His as analyte

- IL-8 secretion by OX40 overexpressing functional cell line, EC50 [1]: 2.54 nM
- IL-8 secretion by OX40 overexpressing functional cell line, best-fit value Bottom [1]: 4130
- IL-8 secretion by OX40 overexpressing functional cell line, best-fit value LogEC50 [1]: 0.404
- IL-8 secretion by OX40 overexpressing functional cell line, best-fit value Top [1]: 19900
Molecule: OX40 ligand (from UniProt P23510 51-183)

- Kd [2]: 2.15 nM
- koff [2]: 0.000616 s⁻¹
- kon [2]: 287000 M⁻¹ s⁻¹
- EC50 [3]: 0.0107 µg/mL
- EC50 [4]: 0.0303 µg/mL
- IL-8 secretion by OX40 overexpressing functional cell line, EC50 [5]: 1.55 nM
- IL-8 secretion by OX40 overexpressing functional cell line, best-fit value Bottom [5]: 3350
- IL-8 secretion by OX40 overexpressing functional cell line, best-fit value LogEC50 [5]: 0.191
- IL-8 secretion by OX40 overexpressing functional cell line, best-fit value Top [5]: 21000
B1: AH02923 humanized anti-human OX40 monoclonal antibody (recombinant human IgG1/kappa) (antibody, V domains shown)
VH: QVQLVQSGAEVKKPGASVKVSCKASGYTFTDYSMHWVRQAPGQGLEWMGWISTETGEPTYADDFKGRFTFTLDTSASTAYLELSSLRSEDTAVYYCARVRPWYLAVWGQGTLVTVSS
VL: DIQMTQSPSSLSASVGDRVTITCRASQDISNYLNWYQQKPGKAVKLLIYYTSRLYSGVPSRFSGSGSGTDYTFTISSLQPEDIATYYCQQANTLPLTFGGGTKLEIK

- Kd [6]: 11.2 nM
- koff [6]: 0.00487 s⁻¹
- kon [6]: 434000 M⁻¹ s⁻¹
B2: Chimeric antibody, as ranked with the prokaryotically expressed antibody products (back-mutation screening) (Fab, V domains shown)
VH: QIQLVQSGPELKKPGETVKISCKASGYTFTDYSMHWVKQAPGKGLKWMGWISTETGEPTYADDFKGRFAFSLETSASTAYLQIKNLKNEDTASYFCARVRPWYLAVWGAGTTVTVSS
VL: DIQMTQTTSSLSASLGDRVTISCRASQDISNYLNWYQQKPDGTVKLLIYYTSRLYSGVPSRFSGSGSGADYSLTVSNLEQEDIATYFCQQANTLPLTFGAGTKLELK
